Substitutions are numbered along the chain they refer to. Several values for one entry are separate records, joined by “and”; a condition that tells them apart may be missing. Identical values can stand only once. Like-named read-outs stand apart in the source and are kept apart here.

Assay [1] has as its target T1, recombinant Fc-KAAG1 fusion protein (full-length human KAAG1 fused to human Fc, from pYD5-0447 in 293E cells) (human, UniProt Q9UBP8 1-84, biotinylated with NHS-biotin for the ELISA (sites not given)).
T1 construct: Order of parts follows the printed name Fc-KAAG1; also called recombinant KAAG1; not shown: its limits and the linker to KAAG
T1 sequence: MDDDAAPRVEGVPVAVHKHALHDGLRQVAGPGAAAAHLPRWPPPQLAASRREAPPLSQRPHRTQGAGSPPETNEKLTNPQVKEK
Put plainly: ELISA, 1 ng Fab/well on Fc-KAAG1 [D00012 Figure 7C]. The method, then: (§1) The 96-well master plate of monoclonal preparations contained different concentrations of purified anti-KAAG1 Fabs in each well. A second stock master plate was prepared by diluting the Fabs to a final concentration of 10 μg/ml from which all subsequent dilutions were performed for ELISA measurements. To carry out the binding of Fc-KAAG1 to the monoclonal preparations, the Fc-KAAG1 was biotinylated with NHS-biotin (Pierce, Rockford, Ill.) and 10 ng/well was coated in a streptavidin 96-well plate. One nanogram of each Fab monoclonal preparation was added to each well and incubated at room temperature for 30 minutes. Bound antibody was detected with HRP-conjugated mouse anti-kappa light chain antibody in the presence of TMB liquid substrate (Sigma-Aldrich Canada Ltd., Oakville, ON) and readings were conducted at 450 nm in microtiter plate reader.
On the technique in general: ELISA stands for enzyme-linked immunosorbent assay.

Assay [2] has as its target Fc-0447 1-60 (human) (UniProt Q9UBP8). Put plainly: ELISA, Fab plate on Fc-0447 1-60.
The target of assay [3] is T2, Fc-fused truncated mutant of KAAG1 spanning amino acids 1-35 (human).
T2 construct: Made and purified like the full-length Fc-KAAG1; also called KAAG1 1-35
T2 chain: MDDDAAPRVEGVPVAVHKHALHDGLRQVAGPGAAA
Put plainly: ELISA, Fab plate on Fc-0447 1-35.

For assay [4], the target named is T3, monomeric recombinant KAAG1 (human, UniProt Q9UBP8 1-84, limits assumed).
T3 construct: Analyte of the Biacore experiment
T3 sequence: T1 sequence
Put plainly: SPR (Biacore), antibody captured on anti-human Fc, monomeric KAAG1 injected, 1:1 model. The method, then:
(§2) More precise measurements were conducted using Surface Plasmon Resonance (SPR) in a Biacore instrument. Kinetic analysis was used to compare the affinity of the chimeric 3D3 with the h3D3 as well as with hybrid antibodies encompassing different permutations of the light and heavy chains (see FIG. 18B). Briefly, anti-human Fc was immobilized on the Biacore sensor chip and chimeric or h3D3 was captured on the chip. Different concentrations of monomeric recombinant KAAG1 were injected and the data were globally fitted to a simple 1:1 model to determine the kinetic parameters of the interaction.
In general terms: Surface plasmon resonance follows binding to a sensor surface in real time, without labels.

The target in assay [5] is T3, monomeric recombinant KAAG1. The experiment in a line: SPR (Biacore); antibody captured on anti-human Fc, monomeric KAAG1 injected, 1:1 fit, average KD; chimeric light chain, humanized heavy chain (CH). On the procedure:
as §2

The target is the same in assay [6]. The experiment in a line: SPR (Biacore); antibody captured on anti-human Fc, monomeric KAAG1 injected, 1:1 fit, average KD; humanized light and heavy chains (HH). The method, then:
as §2

Assay [7] addresses T1, recombinant Fc-KAAG1 fusion protein …. Put plainly: ELISA on recombinant Fc-KAAG1. On the procedure: as §1
Expression of human IgG1s in 293E cells—The expression vectors prepared above that encoded the light and heavy chain immunoglobulins were expressed in 293E cells using the transient transfection system (Durocher et al., 2002). The methods used for co-transfecting the light and heavy chain expression vectors were described in Example 5. […] The ability of the chimeric anti-KAAG1 monoclonal antibodies to bind to recombinant Fc-KAAG1 was measured in the ELISA and compared with the original mouse Fabs. The method was described in Example 5. […]

Assay [8] has as its target T3, monomeric recombinant KAAG1. Put plainly: SPR (Biacore); antibody captured on anti-human Fc, monomeric KAAG1 injected, 1:1 fit, average KD; humanized light chain, chimeric heavy chain (HC). On the procedure:
as §2

Assay [9] has the same target. Put plainly: SPR (Biacore); antibody captured on anti-human Fc, monomeric KAAG1 injected, 1:1 fit, average KD; chimeric 3D3 tabulated as m3D3 in FIG. 18B. On the procedure: as §2
Assay [10] shares this target. The experiment in a line: SPR (Biacore); antibody captured on anti-human Fc, monomeric KAAG1 injected, 1:1 fit, average KD; chimeric light + chimeric heavy chain co-expressed, 'CC' of the permutation set. On the procedure:
as §2

Assay [11] concerns the target T1, recombinant Fc-KAAG1 fusion protein …. The experiment in a line: ELISA on recombinant Fc-KAAG1. This is another data set of the same source.

B1: 3C4 mouse anti-KAAG1 Fab (Fab, V domains shown)
VH: EVQLQESGPDLVKPSQSLSLTCTVTGFSITSGYGWHWIRQFPGNKLEWMGYINYDGHNDYNPSLKSRISITQDTSKNQFFLQLNSVTTEDTATYYCASSYDGLFAYWGQGTLVTVSA
VL: DIVMSQSPSSMYASLGERVTITCKASQDIHNFLNWFQQKPGKSPKTLIFRANRLVDGVPSRFSGSGSGQDYSLTISSLEFEDLGIYSCLQYDEIPLTFGAGTKLELR
notes: Recombinant mouse Fab made in E. coli; also called 3C4 Fab
Regarding B1, the OD450 was determined as 0.25 OD450 in [1] and 0.57 OD450 in assay [2].

B2: anti-KAAG1 Fab of well D1 (plate from Omniclonal library #3) (Fab, V domains shown)
VH: B1 VH with N44D, N53S, Y54F, D55N, H57D, N58Y, D59N, Q72R, N84S
VL: DIKMTQSPSSMYASLGERVTITCKASQDIHTYLNWFQQKPGKSPETLIYRANRLVDGVPSRFSGSGSGQDYSLTISSLEYEDMGIYYCLQYDEFPLTFGAGTKLELK
With B2, the results for the OD450 in [1] and in [3] were 0.15 OD450 and 1.21 OD450, respectively.

B3: anti-KAAG1 Fab of well C2 (plate from Omniclonal library #3) (Fab, V domains shown)
VH: B1 VH with E1D, N53S, Y54F, D55N, H57D, N58S, D59N, Q72R, T88S, T111P
VL: B2 VL with K3Q, I21L, T31N, E45K, Y49H, D56A, M83L, E93A
With B3, the OD450 in [1] stood at 0.32 OD450; in assay [3], 1.97 OD450.

B4: 3G10 mouse anti-KAAG1 Fab (Fab, V domains shown)
VH: EIQLQQSGPELVKPGASVKISCKASGYTFTDNYMNWVKQSHGKSLEWIGDINPYYGTTTYNQKFKGKATLTVDKSSRTAYMELRGLTSEDSAVYYCARDDWFDYWGQGTLVTVSA
VL: DVLMTQTPRSLSVSLGDQASISCRSSQSLLHSNGNTYLEWYLQKPGQPPKVLIYKVSNRFSGVPDRFSGSGSGTDFTLKISGVEAEDLGVYYCFQGSHVPLTFGAGTKLELK
notes: Recombinant mouse Fab made in E. coli; also called 3G10 Fab
Turning to B4, the OD450 in assay [1] stood at 2.78 OD450.

B5: 3D3 hybrid antibody: chimeric light chain expressed with the humanized heavy chain (antibody, human IgG1, V domains shown)
VH: EVQLVQSGAEVKKPGASVKVSCKASGYIFTDYEIHWVRQAPGQGLEWMGVIDPETGNTAFNQKFKGRVTITADTSTSTAYMELSSLTSEDTAVYYCMGYSDYWGQGTLVTVSS
VL: DIVMTQSPSSLAVSIGQKVTMNCKSSQSLLNSNFQKNFLAWYQQKPGQSPKLLIYFASTRESSIPDRFIGSGSGTDFTLTISSVQAEDLADYFCQQHYSTPLTFGAGTKLELKA
Regarding B5, in assay [4], the Ka is 1.98e+09 M⁻¹; the koff – broadly, the first-order rate constant of dissociation – came out at 0.00111 s⁻¹; the kon (as a rule, the second-order rate constant of association) was 2.2e+06 M⁻¹ s⁻¹. In addition, the Kd – broadly, the concentration at which binding is half-saturated – in [5] was determined as 0.505 nM.

B6: humanized 3D3 anti-KAAG1 antibody (human IgG1) (antibody, V domains shown)
VH: B5 VH
VL: DIVMTQSPDSLAVSLGERATINCKSSQSLLNSNFQKNFLAWYQQKPGQPPKLLIYFASTRESSVPDRFSGSGSGTDFTLTISSLQAEDVAVYYCQQHYSTPLTFGQGTKLEIKR
notes: The residues before them (leader) are left out on that ground; also called h3D3; HH
As for B6, in assay [4], the Ka is 2.28e+09 M⁻¹, the dissociation rate constant (koff) stood at 0.00111 s⁻¹ and the association rate constant (kon) came to 2.53e+06 M⁻¹ s⁻¹. The Kd in assay [6] was 0.439 nM.

B7: anti-KAAG1 Fab of well E10 (plate from Omniclonal library #3) (Fab, V domains shown)
VH: EVQLQQSGPELVKPGASVKISCKASGDTFTDYYMNWVKQSHGKSLEWIGDINPNYGGITYNQKFKGKATLTVDTSSSTAYMELRGLTSEDSAVYYCQAYYRNSDYWGQGTTLTVSS
VL: DIVMTQAAPSVPVTPGESVSISCRSSKSLLHSNGNTYLYWFLQRPGQSPQLLIYRMSNLASGVPDRFSGSGSGTAFTLRISRVEAEDVGVYYCMQHLEYPYTFGGGTKLEIK
As to B7, the OD450 in assay [1] is 0.02 OD450; in assay [3], 0.33 OD450; in assay [2], -0.02 OD450.

B8: 3D3 mouse anti-KAAG1 Fab (Fab, V domains shown)
VH: EVQLQQSVAELVRPGASVTLSCKASGYIFTDYEIHWVKQTPVHGLEWIGVIDPETGNTAFNQKFKGKATLTADISSSTAYMELSSLTSEDSAVYYCMGYSDYWGQGTTLTVSS
VL: DIVMTQSPSSLAVSIGQKVTMNCKSSQSLLNSNFQKNFLAWYQQKPGQSPKLLIYFASTRESSIPDRFIGSGSGTDFTLTISSVQAEDLADYFCQQHYSTPLTFGAGTKLELK
notes: Recombinant mouse Fab made in E. coli; also called 3D3 Fab
As to B8, the OD450 stood at 1.21 OD450 in assay [1] and 1.33 OD450 in assay [2]. For the same molecule, the 50% effective concentration (EC50 (read off the curve)) (in general, the concentration giving half of the maximal effect) in [7] is ~0.5 µg/mL.

B9: G12 (Fab, V domains shown)
VH: B8 VH with L20V, V42A
VL: DIVMTQSPKFMSTSVGDRVSITCKASQDVGTAVAWYQQKPGQSPELLIYWTSTRHTGVPDRFSGSGSGTDFTLTISSVQAEDLADYFCQQHYSIPLTFGAGTKLELR
Consider B9, for which the OD450 in [1] amounted to 1.38 OD450.

B10: 3D3 hybrid antibody: humanized light chain expressed with the chimeric heavy chain (antibody, V domains shown)
VH: B8 VH
VL: B6 VL
notes: also called HC
Consider B10, for which the dissociation constant Kd in [8] worked out at 0.309 nM. In [4], the Ka stood at 3.24e+09 M⁻¹, the koff worked out at 0.00073 s⁻¹ and the kon was 2.36e+06 M⁻¹ s⁻¹.

B11: 3D3 mouse-human chimeric IgG1 anti-KAAG1 monoclonal antibody (antibody, V domains shown)
VH: B8 VH
VL: B5 VL
notes: Mouse variable regions on human IgG1 and kappa constant regions, made in 293E cells; In the Biacore experiment two KD values are told for this composition, under the labels m3D3 and CC; also called chimeric 3D3; m3D3
Regarding B11, in [4], the Ka was 4.5e+09 M⁻¹ and 2.71e+09 M⁻¹; the Kd is 0.368 nM; the off-rate (koff) was 0.00065 s⁻¹ and 0.00073 s⁻¹; the kon was 2.91e+06 M⁻¹ s⁻¹ and 1.98e+06 M⁻¹ s⁻¹. The Kd in [9] is 0.235 nM. Also, the Kd in assay [10] stood at 0.271 nM. The concentration giving a half-maximal response (EC50 (read off the curve)) in assay [11] is ~0.4 µg/mL.

The values are drawn from patent US20120128661A1 (ALETHIA BIOTHERAPEUTICS, published 2012).
